Test results published in patent US7951906B2, “Compounds capable of interacting with a cell-surface fibroblast growth factor receptor” (Enkam Pharmaceuticals A/S, priority 2002, dated 2011).

T1: FGFR1 Ig modules 2, 3 (Mus musculus, UniProt P16092)
T1 construct: amino acids 249-365 and 141-365 of FGFR (swissprot p16092), respectively; made in house; host or cells: Drosophila S2 cells
T1 sequence (P16092 141-365): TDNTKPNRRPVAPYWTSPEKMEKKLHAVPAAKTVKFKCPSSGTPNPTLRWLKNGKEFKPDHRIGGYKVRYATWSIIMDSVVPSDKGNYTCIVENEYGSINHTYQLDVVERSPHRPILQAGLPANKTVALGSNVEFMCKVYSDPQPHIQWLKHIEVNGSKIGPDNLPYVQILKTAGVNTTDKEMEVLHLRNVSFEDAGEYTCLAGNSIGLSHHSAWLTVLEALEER

T2: FGFR Ig module 2 (Mus musculus, UniProt P16092)
T2 sequence (P16092 140-251): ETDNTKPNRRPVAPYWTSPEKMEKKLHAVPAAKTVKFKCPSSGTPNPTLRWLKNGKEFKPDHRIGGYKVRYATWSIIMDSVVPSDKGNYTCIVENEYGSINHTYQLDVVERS

B1: NCAM F3 module 2: recombinant protein: AG and amino acids 612-705 of rat NCAM (swissprot p13596) (protein)
chain: AGPSAPKLEGQMGEDGNSIKVNLIKQDDGGSPIRHYLVKYRALASEWKPEIRLPSGSDHVMLKSLDWNAEYEVYVVAENQQGKSKAAHFVFRTSAQ

Experiments:
[1] = tested on: hippocampal neurons; assay: Neurite outgrowth from hippocampal neurons; format: cell-based, rat; conditions: for neurite outgrowth in dose-response study: neurite length versus concentration
Method: Dissociated neurons from embryonic rat hippocampus (embryonic day 19), prepared as described (Skladchikova et al., 1999), were grown on Permanox plastic (Nunc) for 24 h at a density of 6000 cells/cm^2, at 37° C., 5% CO2 in Neurobasal medium containing 20 mM Hepes, 100 U/ml penicillin, 100 μg/ml streptomycin, 0.4% BSA supplemented with B27 (Gibco BRL) and the below specified compounds. After 24 h, cells were fixed with paraformaldehyde, stained with Coomassie Brilliant Blue R250 and the length of neurites was measured as described (Skladchikova et al, 1999).

[2] = target: interaction between the NCAM F3 modules 1, 2 and the FGFR modules 2, 3 (Rattus norvegicus, UniProt P13596); assay: biochemical
interaction between the NCAM F3 modules 1, 2 and the FGFR modules 2, 3, sequence (P13596 507-705): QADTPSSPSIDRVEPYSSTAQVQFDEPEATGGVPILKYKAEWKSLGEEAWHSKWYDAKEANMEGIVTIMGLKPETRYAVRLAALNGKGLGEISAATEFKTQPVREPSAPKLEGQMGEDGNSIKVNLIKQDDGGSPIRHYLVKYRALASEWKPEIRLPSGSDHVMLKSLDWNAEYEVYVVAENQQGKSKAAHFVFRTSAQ

[3] = target: T1, FGFR1 Ig modules 2, 3; assay: SPR binding to immobilized FGFR Ig modules 2, 3
Source text: The NCAM F3 modules 1, 2 (without expression of exons a, AAG), and FGFR1 Ig modules 2, 3 were produced using rat NCAM cDNA and mouse FGFR1 (IIIC iso-form) cDNA. The F3 module 1 and the combined F3 modules 1, 2 consist of […] (SEQ ID NO:173) and amino acids 507-611 and 507-705 of NCAM (swissprot p13596), respectively. […] The FGFR Ig module 2 consists of […] […] The FGFR Ig module 3 and the combined Ig modules 2, 3 consist of […] (SEQ ID NO:174) and amino acids 249-365 and 141-365 of FGFR (swissprot p16092), respectively. […] All the proteins were purified by affinity chromatography using Ni2^+−NTA resin (Qiagen, USA) and/or ion exchange chromatography and gel filtration. ^15N-labelled F3 module 2 was produced as described (Thomsen et al., 1996). The NCAM Ig modules 1, 2 and 3 (RV and amino acids 20-308 of rat NCAM, swissprot p13596) was produced as described (Soroka et al., 2002).
The flow-rate was 5 μl/min. […] The FGFR Ig modules 2, 3 were immobilized on a sensor chip CM5 using amine coupling kit (Biosensor AB) as follows: 1) the two halves of the chip (designated Fc1 and Fc2) were activated by 20 μl activation solution; 2) the protein was immobilized on Fc1 using 12 μl 20 μg/ml protein in 10 mM sodium phosphate buffer pH 6.0; 3) Fc1 and Fc2 were blocked by 35 μl blocking solution. […] The resulting curve was used for analysis.

[4] = target: T3, rat FGFR1 (IIIC isoform) (Rattus norvegicus, UniProt Q04589); assay: FGFR1 phosphorylation, Assay 2 (HEK293 cells, His-tagged FGFR1); format: cell-based; conditions: 20 min, 5 μM F3 module 2, 25 μM monomeric FG loop peptide
T3 construct: expressed in transfected cells; host or cells: HEK293 cells, transient, pcDNA3.1(+)
T3 sequence (Q04589 22-822): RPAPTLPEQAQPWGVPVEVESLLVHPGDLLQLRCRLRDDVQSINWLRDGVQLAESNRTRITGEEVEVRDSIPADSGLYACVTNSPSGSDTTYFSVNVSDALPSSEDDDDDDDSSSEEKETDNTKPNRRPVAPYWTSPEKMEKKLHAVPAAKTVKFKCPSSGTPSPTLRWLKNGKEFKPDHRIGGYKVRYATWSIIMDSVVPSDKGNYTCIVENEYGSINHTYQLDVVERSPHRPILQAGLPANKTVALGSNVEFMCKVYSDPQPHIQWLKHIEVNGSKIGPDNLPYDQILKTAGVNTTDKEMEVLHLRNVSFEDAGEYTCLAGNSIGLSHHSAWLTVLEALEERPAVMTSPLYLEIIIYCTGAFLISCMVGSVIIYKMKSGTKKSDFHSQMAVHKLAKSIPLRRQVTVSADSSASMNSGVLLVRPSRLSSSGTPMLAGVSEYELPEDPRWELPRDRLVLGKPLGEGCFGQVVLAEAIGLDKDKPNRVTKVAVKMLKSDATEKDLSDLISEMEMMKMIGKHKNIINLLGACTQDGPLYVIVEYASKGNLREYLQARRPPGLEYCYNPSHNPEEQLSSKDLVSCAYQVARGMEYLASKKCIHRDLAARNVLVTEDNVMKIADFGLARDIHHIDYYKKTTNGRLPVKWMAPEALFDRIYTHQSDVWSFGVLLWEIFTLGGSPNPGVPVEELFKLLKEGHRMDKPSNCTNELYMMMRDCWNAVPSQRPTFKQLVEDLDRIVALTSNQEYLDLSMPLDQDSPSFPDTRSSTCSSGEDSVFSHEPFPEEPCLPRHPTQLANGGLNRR
Method: Assay 2: The cDNA for the rat FGFR1 (IIIC isoform) was cloned by RT-PCR using RNA isolated from the rat PC12 cell line and inserted into a pcDNA3.1(+) plasmid (invitrogen), which allows expression of FGFR1 fused to the N-terminal of hexahistidine. ˜8×10^5 HEK293 cells were cultured for 24 h in 60 mm plates in full medium (DMEM 1965 supplemented with 10% FCS, 100 U/ml penicillin, 100 μg/ml streptomycin and […] Glutamax) and then transfected with 0.2 μg plasmid (with FGFR) using the LipofectAMIN PLUS™ reagent kit according to the manufacturer's instructions (Gibco BRL). Cells were grown for another 24 hrs in full medium, and then shifted to starvation media (DMEM 1965) overnight. FGFR transfected cells were stimulated for 20 min with the specified compounds, lysed in 8M urea, 1 mM orthovanadate (in PBS) and purified from the lysate via the His-tag as follows: The lysate was loaded on Ni^2+/NTA-sepharose (Qiagen), washed with lysis buffer plus 10 mM imidazole, and the FGFR was eluted with lysis buffer plus 250 mM imidazole. The purified FGFR was analysed by immunoblotting using anti-pentahis (Qiagen) or anti-phosphotyrosine (PY20, Transduction Laboratories) antibodies. The bands were visualised by chemilumiscense and the band density was measured using a GeneGnome apparatus (SynGene).

[5] = tested on: polyclonal antibody raised against the intact FGL-peptide; assay: Competitive ELISA of immunoreactivity with antibody raised against FGL-peptide; format: binding; conditions: rabbit serum
Source text: Antibody specifically recognising an epitope comprising SEQ ID NO: 1 (FGL-peptide) were raised in rabbits according the standard procedure (Gill B M, Barbosa J A, Dinh T Q, Garrod S, O'Connor D T: Chromogranin B: isolation from pheochromocytoma, N-terminal sequence, tissue distribution and secretory vesicle processing. Regul Peptides 33:223-35, 1991). Synthetic FGL-peptide was coupled to a carrier protein, KLH (Keyhole Limpets Hemocyanin). The peptide was mixed with Freunds incomplete adjuvant and the mixture was injected into rabbits. 208 μg peptide was used per immunisation (per rabbit).
Antibodies (serum) were tested for specificity by competitive ELISA using a series FGL-peptide truncated variants according to the protocol described in R. J. Jenny, T. L. Messier, L. A. Ouellette, and W. R. Church, Methods Enzymol. 222, 400 (1993). 100% immunoreactivity was ob-served only with the intact FGL-peptide consisting of SEQ ID NO: 1.

[6] = target: T4, human FGFR1 (Homo sapiens, UniProt P11362); assay: FGFR1 phosphorylation, Assay 1 (TREX-293 cells, StrepII-tagged FGFR1); format: cell-based; conditions: 20 min, 5 μM F3 module, 2.5 μM dendrimeric FG loop peptide
T4 construct: expressed in transfected cells; host or cells: TREX-293 cells (Invitrogen), Flp-In system
T4 sequence (P11362 22-822): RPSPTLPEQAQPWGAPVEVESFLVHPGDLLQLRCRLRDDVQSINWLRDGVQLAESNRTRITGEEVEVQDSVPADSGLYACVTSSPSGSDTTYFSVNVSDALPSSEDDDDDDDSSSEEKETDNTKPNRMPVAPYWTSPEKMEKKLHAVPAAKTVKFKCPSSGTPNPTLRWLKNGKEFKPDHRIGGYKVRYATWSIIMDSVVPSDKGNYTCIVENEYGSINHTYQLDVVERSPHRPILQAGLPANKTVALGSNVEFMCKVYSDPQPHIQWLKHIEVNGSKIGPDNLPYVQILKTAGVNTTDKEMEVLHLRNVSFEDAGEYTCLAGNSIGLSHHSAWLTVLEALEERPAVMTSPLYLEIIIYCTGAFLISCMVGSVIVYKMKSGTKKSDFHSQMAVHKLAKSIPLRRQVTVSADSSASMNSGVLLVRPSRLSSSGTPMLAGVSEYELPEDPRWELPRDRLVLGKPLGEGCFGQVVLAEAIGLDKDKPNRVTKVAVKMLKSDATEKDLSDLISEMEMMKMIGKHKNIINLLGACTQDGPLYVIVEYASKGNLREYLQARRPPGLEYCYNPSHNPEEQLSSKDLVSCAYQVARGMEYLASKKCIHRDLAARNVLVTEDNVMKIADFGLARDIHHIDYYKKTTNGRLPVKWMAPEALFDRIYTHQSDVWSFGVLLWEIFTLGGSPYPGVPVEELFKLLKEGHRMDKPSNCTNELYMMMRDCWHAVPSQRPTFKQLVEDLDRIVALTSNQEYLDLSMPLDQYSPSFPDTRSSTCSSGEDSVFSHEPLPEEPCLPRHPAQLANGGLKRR
Method: Assay 1: TREX-293 cells (Invitrogen) were stably transfected with human FGFR1 having a C-terminal StrepII-tag (IBA biotech), using the Flp-In system (Invitrogen). For the study of phosphorylation: ˜2×10^7 cells were starved overnight before stimulation for 20 min with the specified compounds. Cells were lysed in PBS with 1% NP-40 and phosphatase inhibitors cocktail set II (Calbiochem). The cleared cell lysates were incubated with 50 μl agarose-coupled anti-phosphotyrosine antibodies (4G10-AC, Upstate Biotechnologies) for 3 hrs at 4° C. Care was taken to calibrate the amount of cells employed, so that considerable increases in phosphorylated FGFR could be detected. The bound protein was washed, eluted using 150 mM phenyl phosphate (Sigma), precipitated by 12% trichloroacetic acid, washed in cold acetone and dissolved in SDS-PAGE sample buffer. Immunoblotting was performed using antibodies against the recombinant StrepII-tag (IBA biotech). For immunoprecipitation: ˜1×10^7 cells were transiently transfected with the 180 kDa NCAM isoform or a control vector. Cells were incubated for 24 h and then starved overnight. After lysis, FGFR was purified on a StrepTactin Minicolumn (IBA Biotech) according to the manufacturer's instructions, and analyzed by immunoblotting with polyclonal antibodies against human NCAM.

[7] = target: T2, FGFR Ig module 2; assay: 15N-HSQC NMR chemical shift changes of NCAM F3 module 2 with FGFR Ig module 2; format: binding; conditions: 50 μM 15N-labeled F3 module 2, 1 mM FGFR Ig module 2
Source text: The NCAM F3 modules 1, 2 (without expression of exons a, AAG), and FGFR1 Ig modules 2, 3 were produced using rat NCAM cDNA and mouse FGFR1 (IIIC iso-form) cDNA. The F3 module 1 and the combined F3 modules 1, 2 consist of […] (SEQ ID NO:173) and amino acids 507-611 and 507-705 of NCAM (swissprot p13596), respectively. […] The FGFR Ig module 2 consists of […] […] The FGFR Ig module 3 and the combined Ig modules 2, 3 consist of […] (SEQ ID NO:174) and amino acids 249-365 and 141-365 of FGFR (swissprot p16092), respectively. […]
The following samples were used for the structure determination of the NCAM F3 module 2: 2 mM module in H2O or D2O and 1 mM ^15N-labelled module in H2O. […] The following NMR spectra were recorded and used for assignment: TOCSY in H2O or D2O (45 and 70 ms mixing time), NOESY in H2O or D2O (80 and 200 ms mixing time), DQFCOSY, ^15N-HSQC, ^15N-TOCSY-HSQC (70 ms mixing time), and ^15N-NOESY-HSQC (125 ms mixing time) (Bodenhausen and Ruben, 1980; Braunsweiler and Ernst, 1983; Kumar et al., 1981; Piantini et al., 1982; Zhang et al., 1994). […] All spectra were recorded at 298 K. The assignment of the ^1H and ^15N resonances were performed using the program PRONTO (Kjaer et al., 1994). […]

Molecule	inhibition of the neuritogenic effect induced by the F3 module 2 ([1]; 5 μM F3 module, ATP or AMP-PCP 0.4, 1.0 mM)	inhibition of the neuritogenic effect induced by the FG loop peptide ([1]; 50 μM peptide, ATP or AMP-PCP 0.4, 1.0 mM)	Ki [2]	binding to the immobilized FGFR modules [3]	increase of FGFR phosphorylation compared to control cells [4]	neurite outgrowth in dose-response study ([1]; hippocampal neurons)	immunoreactivity [5]	FGFR phosphorylation compared to the non-stimulated cells [6]	stimulation of neurite outgrowth / length of neurites ([1]; hippocampal neurons, 24 h, 5 μM F3 module 2)	changes of the chemical shifts in the presence of the Ig module 2 [7]
Nc1ncnc2c1ncn2[C@@H]1O[C@H](COP(=O)(O)OP(=O)(O)OP(=O)(O)O)[C@@H](O)[C@H]1O [ATP, adenosine triphosphate, reference compound]	substantially reduced	completely inhibited	370 ± 50 µM	–	–	–	–	–	–	–
FG loop peptide: peptide corresponding to residues E^72-A^86 of the NCAM F3 module 2 (EVYVVAENQQGKSKA; NCAM Fn III, 2 [Swiss-Prot P13591] FGFR binding motif)	–	–	–	cannot be detected	~100%	induced neurite outgrowth with a bell-shaped curve	100%	–	–	–
B1	–	–	–	–	approx. 150%	induced neurite outgrowth with a bell-shaped curve	–	substantially increase	substantially increased	No significant changes
